Sequences and labels used below:
B1: Germ cell-less protein-like 1 (Homo sapiens), Q96IK5 (parent)
chain: MGSLSSRVLRQPRPALAQQAQGARAGGSARRPDTGDDAAGHGFCYCAGSHKRKRSSGSFCYCHPDSETDEDEEEGDEQQRLLNTPRRKKLKSTSKYIYQTLFLNGENSDIKICALGEEWSLHKIYLCQSGYFSSMFSGSWKESSMNIIELEIPDQNIDVEALQVAFGSLYRDDVLIKPSRVVAILAAACLLQLDGLIQQCGETMKETVNVKTVCGYYTSAGTYGLDSVKKKCLEWLLNNLMTHQNVELFKELSINVMKQLIGSSNLFVMQVEMDIYTALKKWMFLQLVPSWNGSLKQLLTETDVWFSKQRKDFEGMAFLETEQGKPFVSVFRHLRLQYIISDLASARIIEQDAVVPSEWLSSVYKQQWFAMLRAEQDSEVGPQEINKEELEGNSMRCGRKLAKDGEYCWRWTGFNFGFDLLVTYTNRYIIFKRNTLNQPCSGSVSLQPRRSIAFRLRLASFDSSGKLICSRTTGYQILTLEKDQEQVVMNLDSRLLIFPLYICCNFLYISPEKKN
B2: Peroxisomal bifunctional enzyme (Homo sapiens), Q08426 (parent)
chain: MAEYTRLHNALALIRLRNPPVNAISTTLLRDIKEGLQKAVIDHTIKAIVICGAEGKFSAGADIRGFSAPRTFGLTLGHVVDEIQRNEKPVVAAIQGMAFGGGLELALGCHYRIAHAEAQVGLPEVTLGLLPGARGTQLLPRLTGVPAALDLITSGRRILADEALKLGILDKVVNSDPVEEAIRFAQRVSDQPLESRRLCNKPIQSLPNMDSIFSEALLKMRRQHPGCLAQEACVRAVQAAVQYPYEVGIKKEEELFLYLLQSGQARALQYAFFAERKANKWSTPSGASWKTASARPVSSVGVVGLGTMGRGIVISFARARIPVIAVDSDKNQLATANKMITSVLEKEASKMQQSGHPWSGPKPRLTSSVKELGGVDLVIEAVFEEMSLKKQVFAELSAVCKPEAFLCTNTSALDVDEIASSTDRPHLVIGTHFFSPAHVMKLLEVIPSQYSSPTTIATVMNLSKKIKKIGVVVGNCFGFVGNRMLNPYYNQAYFLLEEGSKPEEVDQVLEEFGFKMGPFRVSDLAGLDVGWKSRKGQGLTGPTLLPGTPARKRGNRRYCPIPDVLCELGRFGQKTGKGWYQYDKPLGRIHKPDPWLSKFLSRYRKTHHIEPRTISQDEILERCLYSLINEAFRILGEGIAASPEHIDVVYLHGYGWPRHKGGPMFYASTVGLPTVLEKLQKYYRQNPDIPQLEPSDYLKKLASQGNPPLKEWQSLAGSPSSKL
partner: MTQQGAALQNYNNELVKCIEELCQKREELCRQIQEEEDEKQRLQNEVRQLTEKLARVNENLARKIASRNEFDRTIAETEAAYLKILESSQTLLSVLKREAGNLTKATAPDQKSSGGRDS
B3: Zinc finger and BTB domain-containing protein 49 (Homo sapiens), Q6ZSB9 (parent)
chain: MDPVATHSCHLLQQLHEQRIQGLLCDCMLVVKGVCFKAHKNVLAAFSQYFRSLFQNSSSQKNDVFHLDVKNVSGIGQILDFMYTSHLDLNQDNIQVMLDTAQCLQVQNVLSLCHTFLKSATVVQPPGMPCNSTLSLQSTLTPDATCVISENYPPHLLQECSADAQQNKTLDESHPHASPSVNRHHSAGEISKQAPDTSDGSCTELPFKQPNYYYKLRNFYSKQYHKHAAGPSQERVVEQPFAFSTSTDLTTVESQPCAVSHSECILESPEHLPSNFLAQPVNDSAPHPESDATCQQPVKQMRLKKAIHLKKLNFLKSQKYAEQVSEPKSDDGLTKRLESASKNTLEKASSQSAEEKESEEVVSCENFNCISETERPEDPAALEDQSQTLQSQRQYACELCGKPFKHPSNLELHKRSHTGEKPFECNICGKHFSQAGNLQTHLRRHSGEKPYICEICGKRFAASGDVQRHIIIHSGEKPHLCDICGRGFSNFSNLKEHKKTHTADKVFTCDECGKSFNMQRKLVKHRIRHTGERPYSCSACGKCFGGSGDLRRHVRTHTGEKPYTCEICNKCFTRSAVLRRHKKMHCKAGDESPDVLEELSQAIETSDLEKSQSSDSFSQDTSVTLMPVSVKLPVHPVENSVAEFDSHSGGSYCKLRSMIQPHGVSDQEKLSLDPGKLAKPQMQQTQPQAYAYSDVDTPAGGEPLQADGMAMIRSSLAALDNHGGDPLGSRASSTTYRNSEGQFFSSMTLWGLAMKTLQNENELDQ

From IntAct's records for PubMed 31515488 come the findings set out here.

The variants in one test derive from B1. Particulars: with cul3_human CUL3, Q13618.
Turning to Y61S, the “effect of a mutation on the interaction” value was “with no effect”.

For the variant K123R, the “effect of a mutation on the interaction” value is “with no effect”.

In a further test the parent is B1. Particulars: with FAM167A.
For the variant Y61S, the “effect of a mutation on the interaction” value is given as “with no effect”.

On to K123R, for which the “effect of a mutation on the interaction” value is reported as “with no effect”.

The variants in the next test derive from B2. Particulars: with ssna1_human SSNA1, O43805.
As to Q685K, the “effect of a mutation on the interaction” value is “with no effect”.

With R556G, the “effect of a mutation on the interaction” value was “with no effect”.

The variants in the next test derive from B3. Particulars: with gopc_human GOPC.
With G701D, the “effect of a mutation on the interaction” value is reported as “with no effect”.

For the variant Y320S, the “effect of a mutation on the interaction” value was “with no effect”.

Take E346K: the “effect of a mutation on the interaction” value is listed as “with no effect”.

The variants in a further test derive from B3. Particulars: with cep70_human CEP70, Q8NHQ1.
cep70_human CEP70, Q8NHQ1, sequence (Q8NHQ1 whole entry): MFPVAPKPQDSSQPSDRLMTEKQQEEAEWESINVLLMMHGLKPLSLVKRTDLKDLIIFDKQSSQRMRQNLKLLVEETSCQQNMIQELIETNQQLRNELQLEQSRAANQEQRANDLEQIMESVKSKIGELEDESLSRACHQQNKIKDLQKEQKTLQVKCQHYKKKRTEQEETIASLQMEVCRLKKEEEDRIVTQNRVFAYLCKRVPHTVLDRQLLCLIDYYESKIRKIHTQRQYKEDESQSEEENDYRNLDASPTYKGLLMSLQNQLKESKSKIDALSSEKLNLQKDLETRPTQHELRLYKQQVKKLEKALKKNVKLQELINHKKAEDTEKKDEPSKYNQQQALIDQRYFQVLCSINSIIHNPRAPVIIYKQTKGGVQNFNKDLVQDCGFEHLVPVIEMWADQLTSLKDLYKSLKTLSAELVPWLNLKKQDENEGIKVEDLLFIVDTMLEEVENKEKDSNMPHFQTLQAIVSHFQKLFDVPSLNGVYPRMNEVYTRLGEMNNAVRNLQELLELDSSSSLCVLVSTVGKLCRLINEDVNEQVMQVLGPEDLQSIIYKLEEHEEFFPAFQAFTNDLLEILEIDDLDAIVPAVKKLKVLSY
In the case of G701D, the “effect of a mutation on the interaction” value is “with no effect”.

Regarding Y320S, the “effect of a mutation on the interaction” value was “disrupting interaction strength”.

Regarding E346K, the “effect of a mutation on the interaction” value is listed as “with no effect”.
